Data from patent publication US7718774 (MacroGenics, dated 2010).

Molecular target: T1, His-tagged 2Ig-B7H3 (R&D Systems) (UniProt Q5ZPR3-2 29-245, limits assumed)
T1 construct: the 2Ig form is an isoform of it; also called 2Ig-B7H3(His); xHis 2Ig (when captured by mouse anti-poly His antibody); not shown: His tag
T1 sequence (looked up): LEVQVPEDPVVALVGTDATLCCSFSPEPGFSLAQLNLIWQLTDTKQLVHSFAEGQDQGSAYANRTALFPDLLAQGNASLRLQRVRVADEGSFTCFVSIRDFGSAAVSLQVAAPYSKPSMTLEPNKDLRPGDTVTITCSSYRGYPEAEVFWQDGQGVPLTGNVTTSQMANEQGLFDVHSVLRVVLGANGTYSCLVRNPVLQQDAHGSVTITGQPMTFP
Test: ELISA, 5 µg/ml 2Ig-B7H3(His) captured by mouse anti-poly His antibody, streptavidin-HRP
Method: To further investigate mu-anti-TES binding to 4Ig-B7H3, ELISA crosslinking experiments with a His-tagged 2Ig-B7H3 (R&D Systems) were performed. 5 µg/ml of a capture antibody, mouse anti-poly His antibody, was coated on a 96-well plate as a control, a no coat well (naked well) was also used. The wells with the capture antibody were then blocked with HBSS+1% BSA. 5 µg/ml of 2Ig-B7H3(His) or 4Ig-B7H3(His) was introduced into naked wells or capture antibody-coated wells. As a control, 5 µg/ml of 2Ig-B7H3(Fc) was introduced into naked wells. The plate was then blocked again with HBSS+1% BSA. Then […] of biotinylated mu-anti-TES7, BLA8, PA20 or STO5 (another anti-B7H3 antibody that only recognizes the 4Ig form of B7H3) was introduced into the plate. The bound biotinylated antibodies were then detected with streptavidin-HRP using standard protocols.

B1: mu-anti-TES7 (antibody, V domains shown)
VH: QVQLQQSGPELVKPGTSVRISCKASGYTFTSYYIHWVKQRPGQGLEWIGWIYPGNVNTKYNENFKGKATLTADKSSSTAYMQLSSLTSEDSAVYFCARGGYFFDQWGQGTTLTVSS
VL: DVQITQSPSYLAASPGETITVNCRASESISKYLAWYQEKPGKTNKLLIYSGSTLQSGIPSRFSGSGSGSDFTLTISSLEPEDFAMYYCHQHNEFPLTFGAGTKLELK
notes: Mouse monoclonal IgG purified from hybridoma supernatant on protein G; also called mouse anti-huTES7 antibody; murine anti-TES7 antibody
  binding result: no binding
